From patent US20160159862A1 (PROTAGONIST THERAPEUTICS, published 2016)
Values belong to the binder of their own block, whether it stands above or below them. Bridge positions count the residues as written; N and C are the ends. Square brackets hold non-standard residues; d marks the D form. Phe(4-COOH) = N[C@@H](Cc1ccc(C(=O)O)cc1)C(=O)O; Bip = N[C@@H](Cc1ccc(-c2ccccc2)cc1)C(=O)O; 1Nal = N[C@@H](Cc1cccc2ccccc12)C(=O)O; 2Nal = N[C@@H](Cc1ccc2ccccc2c1)C(=O)O; NMeR = CN[C@@H](CCCNC(=N)N)C(=O)O; NMeK = CN[C@@H](CCCCN)C(=O)O; Pen = CC(C)(S)[C@H](N)C(=O)O; dNMeK = CN[C@H](CCCCN)C(=O)O

Key:
[1] = biological target: α4β1 (R&D Systems #5668-A4) (UniProt P13612); assay: α4β1-VCAM competition ELISA
[2] = biological target: T1, α4β7 integrin on human cells (human, UniProt P13612 34-1032; P26010 20-798); assay: cell-based or functional assay
[3] = biological target: T2, α4β7 integrin on mouse TK1 cells (mouse, UniProt Q00651 41-1039; P26011 20-806); assay: cell-based or functional assay
T2 sequence (Q00651 41-1039, chain 1 of 2): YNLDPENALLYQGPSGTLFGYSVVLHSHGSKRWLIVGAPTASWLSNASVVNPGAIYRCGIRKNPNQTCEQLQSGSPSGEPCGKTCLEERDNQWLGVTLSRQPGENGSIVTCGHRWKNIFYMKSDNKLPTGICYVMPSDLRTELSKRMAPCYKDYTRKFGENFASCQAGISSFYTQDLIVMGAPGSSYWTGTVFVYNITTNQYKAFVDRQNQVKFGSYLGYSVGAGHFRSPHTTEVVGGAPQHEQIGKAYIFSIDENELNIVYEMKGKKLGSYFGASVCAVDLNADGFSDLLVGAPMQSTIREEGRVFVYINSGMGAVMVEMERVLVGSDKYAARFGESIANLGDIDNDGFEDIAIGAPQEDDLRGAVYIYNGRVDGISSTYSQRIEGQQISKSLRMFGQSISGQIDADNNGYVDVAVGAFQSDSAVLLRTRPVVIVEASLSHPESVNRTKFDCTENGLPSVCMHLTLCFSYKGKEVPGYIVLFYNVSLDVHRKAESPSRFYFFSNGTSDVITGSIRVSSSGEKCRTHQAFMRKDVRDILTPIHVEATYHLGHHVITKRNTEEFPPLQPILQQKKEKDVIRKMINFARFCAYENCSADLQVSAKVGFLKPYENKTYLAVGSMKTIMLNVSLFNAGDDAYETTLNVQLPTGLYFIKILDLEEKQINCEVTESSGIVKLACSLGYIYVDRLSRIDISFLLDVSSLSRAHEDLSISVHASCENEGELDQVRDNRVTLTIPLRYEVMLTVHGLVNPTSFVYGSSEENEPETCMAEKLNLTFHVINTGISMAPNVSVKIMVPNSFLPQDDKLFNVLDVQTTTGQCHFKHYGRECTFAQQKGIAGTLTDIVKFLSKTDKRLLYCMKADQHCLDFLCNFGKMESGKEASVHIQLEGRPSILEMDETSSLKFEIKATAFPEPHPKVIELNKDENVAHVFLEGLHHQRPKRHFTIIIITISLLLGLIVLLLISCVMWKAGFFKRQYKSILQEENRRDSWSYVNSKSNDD
T2 sequence (P26011 20-806, chain 2 of 2): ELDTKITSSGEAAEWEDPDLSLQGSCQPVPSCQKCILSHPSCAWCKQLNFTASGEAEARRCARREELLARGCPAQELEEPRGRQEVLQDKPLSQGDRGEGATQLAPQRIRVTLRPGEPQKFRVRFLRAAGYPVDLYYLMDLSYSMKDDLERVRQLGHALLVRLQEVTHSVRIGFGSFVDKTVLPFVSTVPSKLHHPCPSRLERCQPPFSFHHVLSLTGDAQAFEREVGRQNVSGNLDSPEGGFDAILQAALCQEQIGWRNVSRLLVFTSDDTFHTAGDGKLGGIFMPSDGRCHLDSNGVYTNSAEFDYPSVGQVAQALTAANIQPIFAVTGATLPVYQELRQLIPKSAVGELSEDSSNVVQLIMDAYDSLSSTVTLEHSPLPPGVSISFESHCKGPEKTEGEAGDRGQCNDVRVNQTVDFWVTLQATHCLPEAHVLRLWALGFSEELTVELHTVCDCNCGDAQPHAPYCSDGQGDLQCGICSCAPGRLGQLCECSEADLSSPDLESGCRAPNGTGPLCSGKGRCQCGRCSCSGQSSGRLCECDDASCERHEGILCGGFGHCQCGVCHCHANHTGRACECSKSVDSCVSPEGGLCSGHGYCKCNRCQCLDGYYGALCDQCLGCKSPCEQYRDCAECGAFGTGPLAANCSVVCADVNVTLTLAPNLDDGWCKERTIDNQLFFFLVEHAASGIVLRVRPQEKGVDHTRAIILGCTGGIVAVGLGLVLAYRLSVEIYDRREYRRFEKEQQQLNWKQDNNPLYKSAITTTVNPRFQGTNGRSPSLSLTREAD

[4] = biological target: rh integrin α4β7 (R&D Systems #5397-A30) (human) (UniProt P13612); assay: α4β7-MAdCAM competition ELISA
[5] = biological target: T3, α4β1 (R&D Systems #5668-A4) (UniProt P13612 34-977; P05556 21-728); assay: α4β1-VCAM competition ELISA
T3 construct: bought; also called soluble α4β1
Experimental: The solution was removed by shaking and then blocked with 250 ul of 1% BSA in 1×PBS per well. The wells were then incubated at room temperature for 1 hr with shaking. Each well was then washed once with wash buffer (50 mM Tris-HCl pH7.6, 100 mM NaCL, 1 mM MnCl2 or MgCl2, 0.05% Tween-20). 25 ul of serial dilutions of peptides starting at 200 μM in assay buffer (Assay buffer: 50 mM Tris-HCl pH7.6, 100 mM NaCl, 1 mM MnCl2 or MgCl2, 0.05% Tween-20) was added to each well. Additionally, 25 ul of α4β1 (R&D Systems #5668-A4) was added to each well at a fixed concentration of 120 nM. The final peptide and α4β1 concentrations were 100 μM and 60 nM, respectively. The plates were then incubated at 37° C. for 2 hr. The solution was then removed by shaking, and each well was washed three times with wash buffer. 50 ul of 9F10 antibody at 4 ug/ml (purified mouse anti-human CD49d, BD Bioscience Cat#555502) was then added to each well, and the plate was incubated at room temperature for 1 hr with shaking. The solution was again removed by shaking, and each well was washed three times with wash buffer. 50 ul of peroxidase-conjugated AffiniPure Goat anti-mouse IgG (Jackson immune research cat #115-035-003) diluted in 1:5000 in assay buffer was added to each well. The plate was incubated at room temperature for 30 min with shaking. […] The reaction was stepped with 2N H₂SO₄ and absorbance was read at 450 nm.

[6] = biological target: T1, α4β7 integrin on human cells; assay: cell-based or functional assay; remark: listed apart in the source
[7] = biological target: T2, α4β7 integrin on mouse TK1 cells; assay: cell-based or functional assay; remark: listed apart in the source
[8] = biological target: T4, α4β1 integrin on human cells (human, UniProt P13612 34-1032; P05556 21-798); assay: cell-based or functional assay
[9] = biological target: T4, α4β1 integrin on human cells; assay: cell-based or functional assay; remark: listed apart in the source
[10] = biological target: α4β7 integrin on human cells (human) (UniProt P13612); assay: FACS, human whole blood, 1 mM MnCl2, Basophils
[11] = biological target: α4β7 integrin on human cells (human) (UniProt P13612); assay: FACS, human whole blood, 1 mM MnCl2, Monocytes
[12] = biological target: α4β7 integrin on human cells (human) (UniProt P13612); assay: FACS, human whole blood, 1 mM MnCl2, Eosinophils
[13] = biological target: α4β7 integrin on human cells (human) (UniProt P13612); assay: FACS, human whole blood, 1 mM MnCl2, Neutrophils
[14] = biological target: α4β7 integrin on human cells (human) (UniProt P13612); assay: FACS, human whole blood, 1 mM MnCl2, CD19+ B cells
[15] = biological target: α4β7 integrin on human cells (human) (UniProt P13612); assay: FACS, human whole blood, 1 mM MnCl2, CD4 naïve T cells
[16] = biological target: α4β7 integrin on human cells (human) (UniProt P13612); assay: FACS, human whole blood, 1 mM MnCl2, CD8 naïve T cells
[17] = biological target: α4β7 integrin on human cells (human) (UniProt P13612); assay: FACS, human whole blood, 1 mM MnCl2, CD4 memory T cells
[18] = biological target: α4β7 integrin on human cells (human) (UniProt P13612); assay: FACS, human whole blood, 1 mM MnCl2, CD8 memory T cells
[19] = biological target: α4β7 integrin on human cells (human) (UniProt P13612); assay: FACS, human whole blood, 1 mM MnCl2, NK cells CD16+ 56+
[20] = biological target: soluble α4β7 integrin (Homo sapiens (Human)) (UniProt P13612); assay: SPR, antibody on streptavidin chip, soluble α4β7 as analyte

IC50 [1]: > 1000 nM
α4β7 cell (Hu) IC50 [2]: > 25 nM
α4β7 cell(Mu) IC50 [3]: > 25 nM
Binder: Ac-[Pen][NMeR]SDTL[Pen][2Nal][b‑H‑E]-NH2 (disulfide 1-7 (inferred)) [SEQ ID NO 155]

IC50 [1]: > 1000 nM
IC50 [4]: < 10 nM
α4β7 cell (Hu) IC50 [2]: ≤ 10 nM
α4β7 cell(Mu) IC50 [3]: ≤ 10 nM
Binder: Ac-[Pen][NMeR]SDTL[Pen][Bip][b‑H‑E][NMeK]-NH2 (disulfide 1-7 (inferred); also: homodimer via DIG) [SEQ ID NO 150]

IC50 [5]: > 100 nM
B1: SEQ ID NO 129 (peptide)
peptide: Ac-[Pen][NMeR]SDTL[Pen][Phe(4-COOH)]E[dK]-NH2
modifications: disulfide 1-7; not fully specified (residue 10); printed as (Ac-Pen-(N-Me-R)-S-D-T-L-Pen-F(4-COOH)-E-k-NH2)2-DIG; also: homodimer of two subunits joined by DIG linker

IC50 [1]: 70 nM
IC50 [4]: 2 nM
Cell Adhesion α4β7 IC50 [6]: 2.5 nM
Cell Adhesion α4β7 Mouse IC50 [7]: 2.5 nM
Cell Adhesion α4β1 IC50 [8]: > 100 µM
Binder: Ac-[Pen][NMeR]SDTL[Pen][2Nal]E[dK]-NH2 (disulfide 1-7 (inferred); also: homodimer via DIG) [SEQ ID NO 212]

IC50 [1]: > 100 nM
IC50 [4]: < 10 nM
α4β7 cell (Hu) IC50 [2]: > 10 nM
α4β1 cell IC50 [9]: > 100 µM
Binder: Ac-[Pen][NMeR]SDTL[Pen][2Nal][dE][dK]-NH2 (disulfide 1-7 (inferred); also: homodimer via DIG linker) [SEQ ID NO 33]

Percent positive staining [10]: 86%
Percent positive staining [11]: 7%
Percent positive staining [12]: 91%
Percent positive staining [13]: 0.45%
Percent positive staining [14]: 85%
Percent positive staining [15]: 55%
Percent positive staining [16]: 53%
Percent positive staining [17]: 22%
Percent positive staining [18]: 36%
Percent positive staining [19]: 42%
Half-life for dissociation [20]: 43 min
Kd [20]: 59.5 nM
koff [20]: 0.000266 s⁻¹
kon [20]: 4470 M⁻¹ s⁻¹
B2: biotin-labeled vedolizumab (antibody, INN chains, looked up, V domains shown)
VH: QVQLVQSGAEVKKPGASVKVSCKGSGYTFTSYWMHWVRQAPGQRLEWIGEIDPSESNTNYNQKFKGRVTLTVDISASTAYMELSSLRSEDTAVYYCARGGYDGWDYAIDYWGQGTLVTVSS
VL: DVVMTQSPLSLPVTPGEPASISCRSSQSLAKSYGNTYLSWYLQKPGQSPQLLIYGISNRFSGVPDRFSGSGSGTDFTLKISRVEAEDVGVYYCLQGTHQPYTFGQGTKVEIKR
modifications: biotin label

IC50 [1]: > 100 nM
IC50 [4]: < 10 nM
α4β7 cell (Hu) IC50 [2]: ≤ 10 nM
α4β7 cell(Mu) IC50 [3]: ≤ 10 nM
Binder: Ac-[Pen][NMeR]SDTL[Pen][1Nal]E[dNMeK]-NH2 (disulfide 1-7 (inferred); also: homodimer via DIG linker) [SEQ ID NO 44]

IC50 [1]: 200 nM
IC50 [4]: 11 nM
Cell Adhesion PBMC IC50 [6]: 517 nM
Cell Adhesion α4β7 IC50 [6]: 40 nM
Cell Adhesion α4β7 Mouse IC50 [7]: 60 nM
Cell Adhesion α4β1 IC50 [8]: > 100 µM
Binder: Ac-[Pen][NMeR]SDTL[Pen][2Nal]E[dK]-NH2 (disulfide 1-7 (inferred)) [SEQ ID NO 210]
